From article doi:10.1101/528240 (bioRxiv, 2019)

How the values were obtained:
[1] = molecular target: GII.4 CHDC-1974 norovirus major capsid protein VP1, assembled as virus-like particles (VLPs) (human norovirus GII.4 (CHDC-1974)); experiment: cryo-EM structure
cryo-EM structure = molecular target: the molecule itself; experiment: cryo-EM structure

| Molecule | stoichiometry N [1] | stoichiometry N (cryo-EM structure) |
| --- | --- | --- |
| GII.4 CHDC-1974 norovirus major capsid protein VP1, assembled as virus-like particles (VLPs) (natural protein) | 240 | – |
| GII.4 NSW-2012 norovirus major capsid protein VP1, assembled as virus-like particles (VLPs) (natural protein, human norovirus GII.4 (NSW-2012), UniProt K4LM89 1-540, looked up) MKMASSDANPSDGSAANLVPEVNNEVMALEPVVGAAIAAPVAGQQNVIDPWIRNNFVQAPGGEFTVSPRNAPGEILWSAPLGPDLNPYLSHLARMYNGYAGGFEVQVILAGNAFTAGKVIFAAVPPNFPTEGLSPSQVTMFPHIVVDVRQLEPVLIPLPDVRNNFYHYNQSNDPTIKLIAMLYTPLRANNAGDDVFTVSCRVLTRPSPDFDFIFLVPPTVESRTKPFSVPVLTVEEMTNSRFPIPLEKLFTGPSSAFVVQPQNGRCTTDGVLLGTTQLSPVNICTFRGDVTHITGSRNYTMNLASQNWNDYDPTEEIPAPLGTPDFVGKIQGVLTQTTRTDGSTRGHKATVYTGSADFAPKLGRVQFETDTDRDFEANQNTKFTPVGVIQDGGTTHRNEPQQWVLPSYSGRNTHNVHLAPAVAPTFPGEQLLFFRSTMPGCSGYPNMDLDCLLPQEWVQYFYQEAAPAQSDVALLRFVNPDTGRVLFECKLHKSGYVTVAHTGQHDLVIPPNGYFRFDSWVNQFYTLAPMGNGTGRRRAV | – | 240 |
